Laboratory results published in article PMC12326010, “Substrate accessibility regulation of human TopIIa decatenation by cohesin” (Nature Communications, 2025).

Target: the molecule itself
Test: single-molecule fluorescence intensity (confocal scans, optical tweezers); 2 nM TOP2α-AF555 bound at the junction of a DNA braid, 1 mM ATPγS (also four-braid substrates with ATP); 2D Gaussian fit of spot intensity, histogram of photon counts; 50 mM Tris pH 7.5, 125 mM potassium glutamate, 2.5 mM MgCl2, 0.5 mg/mL BSA

B1: Human topoisomerase II alpha labelled with Alexa Fluor 555 (TOP2α-AF555) (enzyme, UniProt P11388 1-1531, looked up)
chain: MEVSPLQPVNENMQVNKIKKNEDAKKRLSVERIYQKKTQLEHILLRPDTYIGSVELVTQQMWVYDEDVGINYREVTFVPGLYKIFDEILVNAADNKQRDPKMSCIRVTIDPENNLISIWNNGKGIPVVEHKVEKMYVPALIFGQLLTSSNYDDDEKKVTGGRNGYGAKLCNIFSTKFTVETASREYKKMFKQTWMDNMGRAGEMELKPFNGEDYTCITFQPDLSKFKMQSLDKDIVALMVRRAYDIAGSTKDVKVFLNGNKLPVKGFRSYVDMYLKDKLDETGNSLKVIHEQVNHRWEVCLTMSEKGFQQISFVNSIATSKGGRHVDYVADQIVTKLVDVVKKKNKGGVAVKAHQVKNHMWIFVNALIENPTFDSQTKENMTLQPKSFGSTCQLSEKFIKAAIGCGIVESILNWVKFKAQVQLNKKCSAVKHNRIKGIPKLDDANDAGGRNSTECTLILTEGDSAKTLAVSGLGVVGRDKYGVFPLRGKILNVREASHKQIMENAEINNIIKIVGLQYKKNYEDEDSLKTLRYGKIMIMTDQDQDGSHIKGLLINFIHHNWPSLLRHRFLEEFITPIVKVSKNKQEMAFYSLPEFEEWKSSTPNHKKWKVKYYKGLGTSTSKEAKEYFADMKRHRIQFKYSGPEDDAAISLAFSKKQIDDRKEWLTNFMEDRRQRKLLGLPEDYLYGQTTTYLTYNDFINKELILFSNSDNERSIPSMVDGLKPGQRKVLFTCFKRNDKREVKVAQLAGSVAEMSSYHHGEMSLMMTIINLAQNFVGSNNLNLLQPIGQFGTRLHGGKDSASPRYIFTMLSSLARLLFPPKDDHTLKFLYDDNQRVEPEWYIPIIPMVLINGAEGIGTGWSCKIPNFDVREIVNNIRRLMDGEEPLPMLPSYKNFKGTIEELAPNQYVISGEVAILNSTTIEISELPVRTWTQTYKEQVLEPMLNGTEKTPPLITDYREYHTDTTVKFVVKMTEEKLAEAERVGLHKVFKLQTSLTCNSMVLFDHVGCLKKYDTVLDILRDFFELRLKYYGLRKEWLLGMLGAESAKLNNQARFILEKIDGKIIIENKPKKELIKVLIQRGYDSDPVKAWKEAQQKVPDEEENEESDNEKETEKSDSVTDSGPTFNYLLDMPLWYLTKEKKDELCRLRNEKEQELDTLKRKSPSDLWKEDLATFIEELEAVEAKEKQDEQVGLPGKGGKAKGKKTQMAEVLPSPRGQRVIPRITIEMKAEAEKKNKKKIKNENTEGSPQEDGVELEGLKQRLEKKQKREPGTKTKKQTTLAFKPIKKGKKRNPWSDSESDRSSDESNFDVPPRETEPRRAATKTKFTMDLDSDEDFSDFDEKTDDEDFVPSDASPPKTKTSPKLSNKELKPQKSVVSDLEADDVKGSVPLSSSPPATHFPDETEITNPVPKKNVTVKKTAAKSQSSTSTTGAKKRAAPKGTKRDPALNSGVSQKPDPAKTKNRRKRKPSTSDDSDSNFEKIVSKAVTSKKSKGESDDFHMDFDSAVAPRAKSVRAKKPIKYLEESDEDDLF
modifications: Alexa555 conjugated CoA attached by SFP transferase to the ybbr tag (labelling efficiency ~30% or ~70%)
notes: Human topoisomerase II alpha (TOP2α), encoded from the pLIB vector with a C-terminal 3C-ybbr-tev-strepII tag; Two preparations: ~30% labelled (Strep-II tag apparently cleaved); The dimer rows rest on the ~30% preparation; also called TOP2α-Alexa555; TopIIa; source: baculovirus, SF9 or HighFive cells, purified (StrepTrap, HiTrap Heparin, size exclusion); not shown: ybbr, C-terminal, kept; StrepII, …
With B1 the “stoichiometry N” value was 2.
